Measurements from article PMC7756681, “Functional Hybrid Molecules for the Visualization of Cancer: PESIN‐Homodimers Combined with Multimodal Molecular Imaging Probes for Positron Emission Tomography and Optical Imaging: Suited for Tracking of GRPR‐Positive Malignant Tissue” (Chemistry (Weinheim an Der Bergstrasse, Germany), 2020).

Columns and labels:
[1] = Photophysical properties (absorption and emission spectra in PBS); type: physicochemical; details: for Log ϵ / Stokes shift / λ max: 1×10^−5 mol L^−1
Excerpt: After studying the chemical and biological properties of the MIUs and their corresponding multimodal imaging agents, the photophysical properties of the substances were finally under investigation. Here, we found no significant decrease or shift of the optical and fluorescent characteristics of the bioconjugates compared to the MIUs (Table 2).
Fig. S27 Normalized absorption and emission spectra of 7 (left) and 7a (right), recorded in PBS
at a concentration of c = 1.0 x 10-5 mol/L, emission wavelength stated in the graph (bottom, left
Fig. S28 Normalized absorption and emission spectra of 8 (left) and 8a (right), recorded in PBS
Fig. S29 Normalized absorption and emission spectra of 9 (left) and 9a (right), recorded in PBS […]
Fig. S30 Normalized absorption and emission spectra of 10 (left) and 10a (right), recorded in
PBS at a concentration of c = 1.0 x 10-5 mol/L, emission wavelength stated in the graph (bottom,
Fig. S31 Normalized absorption and emission spectra of 11 (left) and 11a (right), recorded in
Fig. S32 Normalized absorption and emission spectra of 12 (left) and 12a (right), recorded in […]

[2] = LogD determination of 68Ga-labeled MIUs and bioconjugates (water/1-octanol partition, γ-counter); details: pH 7.4
Protocol: Following the synthesis of the MIUs 6 a–13 a and the corresponding bioconjugates 6–13, the radiolabeling efficiency of the compounds with ^68Ga^3+ was investigated. […] In the following, we investigated the lipophilicity of the MIUs [^68Ga]6 a–[^68Ga]13 a and their bioconjugates [^68Ga]6–[^68Ga]13 (Table 1 and Figure 2 C,D).
A solution of the respective multimodal imaging unit (MIU) 6a – 13a (5 nmol) or multimodal imaging agent 6 - 14 (5 nmol) in H2O (Tracepur quality, 1mM) was added to 90 - 120 MBq of [68Ga]GaCl in a solution obtained by fractioned elution of an IGG 68Ge/68Ga generator system […]
with HCl (0.1 M, 1.6 mL) and subsequent titration to pH 3.5 – 4.2 by addition of sodium acetate solution (1.25 M, 50 – 75 µL). All labeling experiments were performed by addition of 2 mg ascorbic acid to suppress radiolysis-induced product fragmentation. In the labeling experiments of the MIUs 6a – 13a, 1 - 4 mg TCEP x HCl were added and the pH was adjusted to 3.5 – 4.2 by addition of sodium acetate solution (1.25 M). After reaction for 10 min at 45°C, the reaction mixtures were analyzed by analytical radio-HPLC.
For 68Ga-6/6a – 68Ga-13/13a, the water/1-octanol partition coefficient (log ) was determined by […]
adding 5 µL of the respectively 68Ga-labeled compound (0.8 – 1.2 MBq) to a mixture of phosphate buffer (0.05 M, pH 7.4, 795 µL) and 1-octanol (800 µL). The mixtures were intensively shaken for 5 minutes on a vibrating plate. After subsequent centrifugation at 13 000 rpm for 5 min, 125 µL were taken from each phase and measured in a γ-counter. The logD values were calculated from three or four independent experiments, each performed in triplicate.
For 14, the water/1-octanol partition coefficient (logD) was determined by semipreparative HPLC.
For this purpose, 10 µL solution (c = 5 x 10-4 mol/L) of the substance were added to a mixture of 1 mL 1-octanol and 990 µL phosphate buffered solution (0.05 M, pH 7.4) and the mixture was vigorously shaken for 5 minutes. After centrifugation, the phases were separated and both phases were analyzed by semipreparative HPLC. The logD was determined by three separate measurements, each experiment performed in triplicate.
(§1) Competitive receptor binding assay
(§2) Stably GRPR-transfected Human Embryonic Kidney 293 cells (HEK-GRPR) were cultured at 37°C in Dulbecco’s Modified Eagle’s Medium (DMEM, high glucose, GlutaMax-I, 500 mL) […]
(§3) a humidified atmosphere containing 5 % CO2. The medium was exchanged every two or three days and cells were split at >75 % confluence. In vitro binding affinities were determined via competitive displacement experiments which were performed at least trice, each experiment performed in triplicate. A Millipore Multiscreen punch kit and Millipore 96 well filter plates (pore size 1.2 µm) were used. The plates were incubated with PBS/BSA (1%) solution (each well 200 µL) for one hour before use. HEK-GRPR cells were harvested and suspended carefully in Opti- […]

[3] = target: T1, gastrin-releasing peptide receptor (GRPR) (Homo sapiens, UniProt P30550); assay: Competitive displacement assay on stably GRPR-transfected HEK cells using [125I]-Tyr4-bombesin; type: binding; details: [125I]-Tyr4-bombesin as competitor, 1 h, ambient temperature, read-out: IC50 (GRPR affinity)
T1 construct: host or cells: Human Embryonic Kidney 293 cells (HEK-GRPR)
Protocol: as §1, §2
as §3, with “Opti-MEM I (GlutaMAX I) medium. 50 µL of a cell suspension containing […] were seeded in each well. To this, a total volume of 50 µL was added to each well, containing 25 µL (0.012” for “Opti-”
The competitor was added in 11 increasing concentrations ranging from 0.25 – 500 nM for 6 – […]
binding of the radioligand. After one hour of incubation at ambient temperature, the solution was filtrated and the filters were washed with cold PBS (3 times). The filters were collected and […]

[4] = 1×10^−5 mol L^−1, excitation wavelength λex=400 nm

T1 sequence (P30550 whole entry, species assumed): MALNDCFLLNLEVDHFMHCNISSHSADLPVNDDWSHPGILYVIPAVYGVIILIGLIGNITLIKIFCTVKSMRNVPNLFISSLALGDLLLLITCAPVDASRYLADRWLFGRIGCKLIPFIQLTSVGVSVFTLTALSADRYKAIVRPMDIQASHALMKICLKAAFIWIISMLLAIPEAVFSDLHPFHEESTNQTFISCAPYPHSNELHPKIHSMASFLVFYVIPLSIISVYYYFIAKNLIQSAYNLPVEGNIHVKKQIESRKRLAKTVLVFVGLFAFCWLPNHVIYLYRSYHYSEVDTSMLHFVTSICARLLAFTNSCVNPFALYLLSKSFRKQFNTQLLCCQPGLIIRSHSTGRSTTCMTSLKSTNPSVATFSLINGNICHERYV

What does the source list for CSCC[C@H](NC(=O)[C@H](CC(C)C)NC(=O)[C@H](Cc1c[nH]cn1)NC(=O)CNC(=O)[C@@H](NC(=O)[C@H](C)NC(=O)[C@H](Cc1c[nH]c2ccccc12)NC(=O)[C@H](CCC(N)=O)NC(=O)CCOCCOCCOCCOCCNC(=O)CON=Cc1ccc(C(=O)NCCCN(CCCNC(=O)c2ccc(C=NOCC(=O)NCCOCCOCCOCCOCCC(=O)N[C@@H](CCC(N)=O)C(=O)N[C@@H](Cc3c[nH]c4ccccc34)C(=O)N[C@@H](C)C(=O)N[C@H](C(=O)NCC(=O)N[C@@H](Cc3c[nH]cn3)C(=O)N[C@@H](CC(C)C)C(=O)N[C@@H](CCSC)C(N)=O)C(C)C)cc2)CC(=O)N[C@H](CSC2CC(=O)N(CCN3C(=O)CC(SC[C@H](NC(=O)[C@H](CCCC[n+]4c(C)cc(/C=C/c5ccc(N(C)C)cc5)cc4C)NC(=O)CC[C@H](C(=O)O)N4CCN(CC(=O)O)CCN(CC(=O)O)CC4)C(N)=O)C3=O)C2=O)C(=O)NCCOCCOCC(N)=O)cc1)C(C)C)C(N)=O (stereo partly shown) [Compound 7]?
Log ϵ [1]: 4.23 M ^−1 cm^−1; Stokes shift [1]: 140 nm; λ max [1]: 460 nm; λem [1, 4]: 600 nm; logD [2]: -2 ± 0.01; IC50 [3]: 16.5 ± 0.25 nM

Which “Log ϵ” value [1] does the source give for CSCC[C@H](NC(=O)[C@H](CC(C)C)NC(=O)[C@H](Cc1c[nH]cn1)NC(=O)CNC(=O)[C@@H](NC(=O)[C@H](C)NC(=O)[C@H](Cc1c[nH]c2ccccc12)NC(=O)[C@H](CCC(N)=O)NC(=O)CCOCCOCCOCCOCCNC(=O)CON=Cc1ccc(C(=O)NCCCN(CCCNC(=O)c2ccc(C=NOCC(=O)NCCOCCOCCOCCOCCC(=O)N[C@@H](CCC(N)=O)C(=O)N[C@@H](Cc3c[nH]c4ccccc34)C(=O)N[C@@H](C)C(=O)N[C@H](C(=O)NCC(=O)N[C@@H](Cc3c[nH]cn3)C(=O)N[C@@H](CC(C)C)C(=O)N[C@@H](CCSC)C(N)=O)C(C)C)cc2)CC(=O)N[C@H](CSC2CC(=O)N(CCN3C(=O)CC(SC[C@H](NC(=O)[C@H](CCCC[n+]4c(C)cc(/C=C/C=C/c5ccc(N(C)C)cc5)cc4C)NC(=O)CC[C@H](C(=O)O)N4CCN(CC(=O)O)CCN(CC(=O)O)CC4)C(N)=O)C3=O)C2=O)C(=O)NCCOCCOCC(N)=O)cc1)C(C)C)C(N)=O (stereo partly shown) [Compound 8] here?
The value was 4.16 M ^−1 cm^−1.

And the Stokes shift [1]?
The Stokes shift was 230 nm.

And the λ max [1]?
The λ max was 470 nm.

And the λem [1, 4]?
Its λem is 700 nm.

What about the logD [2] of the same molecule?
Its logD is -1.73 ± 0.2.

What about the IC50 [3] of the same molecule?
Its IC50 is 15.5 ± 0.76 nM.

Which results are given for CSCC[C@H](NC(=O)[C@H](CC(C)C)NC(=O)[C@H](Cc1c[nH]cn1)NC(=O)CNC(=O)[C@@H](NC(=O)[C@H](C)NC(=O)[C@H](Cc1c[nH]c2ccccc12)NC(=O)[C@H](CCC(N)=O)NC(=O)CCOCCOCCOCCOCCNC(=O)CON=Cc1ccc(C(=O)NCCCN(CCCNC(=O)c2ccc(C=NOCC(=O)NCCOCCOCCOCCOCCC(=O)N[C@@H](CCC(N)=O)C(=O)N[C@@H](Cc3c[nH]c4ccccc34)C(=O)N[C@@H](C)C(=O)N[C@H](C(=O)NCC(=O)N[C@@H](Cc3c[nH]cn3)C(=O)N[C@@H](CC(C)C)C(=O)N[C@@H](CCSC)C(N)=O)C(C)C)cc2)CC(=O)N[C@H](CSC2CC(=O)N(CCN3C(=O)CC(SC[C@H](NC(=O)[C@H](CCCCNS(=O)(=O)c4cccc5c(N(C)C)cccc45)NC(=O)CC[C@H](C(=O)O)N4CCN(CC(=O)O)CCN(CC(=O)O)CC4)C(N)=O)C3=O)C2=O)C(=O)NCCOCCOCC(N)=O)cc1)C(C)C)C(N)=O (stereo partly shown) [Compound 9]?
λem [1, 4]: 540 nm; logD [2]: -1.59 ± 0.06; IC50 [3]: 26.2 ± 0.89 nM

Which results are given for CSCC[C@H](NC(=O)[C@H](CC(C)C)NC(=O)[C@H](Cc1c[nH]cn1)NC(=O)CNC(=O)[C@@H](NC(=O)[C@H](C)NC(=O)[C@H](Cc1c[nH]c2ccccc12)NC(=O)[C@H](CCC(N)=O)NC(=O)CCOCCOCCOCCOCCNC(=O)CON=Cc1ccc(C(=O)NCCCN(CCCNC(=O)c2ccc(C=NOCC(=O)NCCOCCOCCOCCOCCC(=O)N[C@@H](CCC(N)=O)C(=O)N[C@@H](Cc3c[nH]c4ccccc34)C(=O)N[C@@H](C)C(=O)N[C@H](C(=O)NCC(=O)N[C@@H](Cc3c[nH]cn3)C(=O)N[C@@H](CC(C)C)C(=O)N[C@@H](CCSC)C(N)=O)C(C)C)cc2)CC(=O)N[C@H](CSC2CC(=O)N(CCN3C(=O)CC(SC[C@H](NC(=O)[C@H](CCCCNc4ccc([N+](=O)[O-])c5nonc45)NC(=O)CC[C@H](C(=O)O)N4CCN(CC(=O)O)CCN(CC(=O)O)CC4)C(N)=O)C3=O)C2=O)C(=O)NCCOCCOCC(N)=O)cc1)C(C)C)C(N)=O (stereo partly shown) [Compound 10]?
Log ϵ [1]: 4.10 M ^−1 cm^−1; λ max [1]: 490 nm; λem [1, 4]: 545 nm; logD [2]: -1.42 ± 0.24

With CSCC[C@H](NC(=O)[C@H](CC(C)C)NC(=O)[C@H](Cc1c[nH]cn1)NC(=O)CNC(=O)[C@@H](NC(=O)[C@H](C)NC(=O)[C@H](Cc1c[nH]c2ccccc12)NC(=O)[C@H](CCC(N)=O)NC(=O)CCOCCOCCOCCOCCNC(=O)CON=Cc1ccc(C(=O)NCCCN(CCCNC(=O)c2ccc(C=NOCC(=O)NCCOCCOCCOCCOCCC(=O)N[C@@H](CCC(N)=O)C(=O)N[C@@H](Cc3c[nH]c4ccccc34)C(=O)N[C@@H](C)C(=O)N[C@H](C(=O)NCC(=O)N[C@@H](Cc3c[nH]cn3)C(=O)N[C@@H](CC(C)C)C(=O)N[C@@H](CCSC)C(N)=O)C(C)C)cc2)CC(=O)N[C@H](CSC2CC(=O)N(CCN3C(=O)CC(SC[C@H](NC(=O)[C@H](CCCCNC(=O)c4cc5cc6c7c(c5oc4=O)CCCN7CCC6)NC(=O)CC[C@H](C(=O)O)N4CCN(CC(=O)O)CCN(CC(=O)O)CC4)C(N)=O)C3=O)C2=O)C(=O)NCCOCCOCC(N)=O)cc1)C(C)C)C(N)=O (stereo partly shown) [Compound 12] as the molecule, how does the “Log ϵ” value [1] read?
The value was 4.30 M ^−1 cm^−1.

And the Stokes shift [1]?
The Stokes shift was 40 nm.

And the λ max [1]?
Its λ max is 455 nm.

And the λem [1, 4]?
The λem was 495 nm.

What about the logD [2] of the same molecule?
Its logD is -1.72 ± 0.13.

What about the IC50 [3] of the same molecule?
Its IC50 is 20.9 ± 1.67 nM.

What does the source list for CSCC[C@H](NC(=O)[C@H](CC(C)C)NC(=O)[C@H](Cc1c[nH]cn1)NC(=O)CNC(=O)[C@@H](NC(=O)[C@H](C)NC(=O)[C@H](Cc1c[nH]c2ccccc12)NC(=O)[C@H](CCC(N)=O)NC(=O)CCOCCOCCOCCOCCNC(=O)CON=Cc1ccc(C(=O)NCCCN(CCCNC(=O)c2ccc(C=NOCC(=O)NCCOCCOCCOCCOCCC(=O)N[C@@H](CCC(N)=O)C(=O)N[C@@H](Cc3c[nH]c4ccccc34)C(=O)N[C@@H](C)C(=O)N[C@H](C(=O)NCC(=O)N[C@@H](Cc3c[nH]cn3)C(=O)N[C@@H](CC(C)C)C(=O)N[C@@H](CCSC)C(N)=O)C(C)C)cc2)CC(=O)N[C@H](CSC2CC(=O)N(CCN3C(=O)CC(SC[C@H](NC(=O)[C@H](CCCCNC(=O)c4ccccc4C4=c5cc6c7c(c5Oc5c4cc4c8c5CCCN8CCC4)CCC[N+]=7CCC6)NC(=O)CC[C@H](C(=O)O)N4CCN(CC(=O)O)CCN(CC(=O)O)CC4)C(N)=O)C3=O)C2=O)C(=O)NCCOCCOCC(N)=O)cc1)C(C)C)C(N)=O (stereo partly shown) [Compound 13]?
Log ϵ [1]: 4.57 M ^−1 cm^−1; Stokes shift [1]: 20 nm; λ max [1]: 590 nm; λem ([1]; 1×10^−5 mol L^−1, excitation wavelength λex=500 nm): 610 nm; logD [2]: -0.81 ± 0.05; IC50 [3]: 18 ± 0.86 nM
